Assay results published in US20180057581A1 (MorphoSys, published 2018).

Experiments:
Transferrin (bovine) = Transferrin (bovine) (bovine, UniProt Q29443 20-704); assay: MSD specificity profiling, coated protein, Camille at 10 nM
Procedure: (§1) For this specificity profiling test the different proteins and controls were coated on two 384-well MSD plates with a concentration of 1 μg/ml at 4° C. over night. Plates were blocked with BSA and washed three times with PBS with 0.05% (v/v) Tween 20. Antibody samples were diluted to 100 nM and 10 nM in assay buffer (PBS with 0.5% (w/v) BSA, 0.05% (v/v) Tween 20). […] Samples and controls were incubated for three hours at room temperature. The plates were washed three times and 30 μl detection antibody (ECL-labeled anti-human Fab) were added per well and incubated for 1 h. After washing, MSD Read Buffer T with surfactant was added and electrochemiluminescence signals were detected using a Sector Imager 6000 (Meso Scale Discovery, Gaithersburg, Md., USA).

human M-CSF = target: T1, human M-CSF (human, UniProt P09603 33-255, limits assumed); assay: as above
T1 construct: also called M-CSF (human); CSF-1
T1 sequence: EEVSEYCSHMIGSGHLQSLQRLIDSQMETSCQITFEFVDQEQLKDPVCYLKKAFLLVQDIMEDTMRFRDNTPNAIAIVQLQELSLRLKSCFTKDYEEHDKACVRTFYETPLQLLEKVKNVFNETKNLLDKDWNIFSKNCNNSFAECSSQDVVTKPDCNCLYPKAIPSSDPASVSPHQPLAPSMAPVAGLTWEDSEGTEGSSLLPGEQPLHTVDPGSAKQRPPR
Procedure: as §1

Serum albumin (human) = Serum albumin (human) (human, UniProt P02768 25-609); assay: as above
Procedure: as §1

Pepsinogen (pork) = Pepsinogen (pork) (pork, UniProt P00791 16-385); assay: as above
Procedure: as §1

RNase A (cow) = target: T2, RNase A (cow) (cow, UniProt P61823 27-150); assay: as above
T2 sequence (looked up): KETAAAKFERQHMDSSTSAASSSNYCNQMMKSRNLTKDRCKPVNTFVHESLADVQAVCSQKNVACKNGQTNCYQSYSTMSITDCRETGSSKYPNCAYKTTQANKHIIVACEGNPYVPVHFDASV
Procedure: as §1

[1] = target: Aminogylcosidase (Aspergillus niger) (Aspergillus niger); assay: as above
Procedure: as §1

[2] = target: T3, Recombinant human sgM-CSF (human, UniProt P09603 33-255); assay: Receptor binding assay, inhibition of human M-CSF binding to M-CSF receptor (competitor CSF1-R-Fc); Table 12 summary
T3 construct: also called human secreted glycosylated M-CSF; Human M-CSF
T3 sequence: T1 sequence

GM-CSF = GM-CSF (Homo sapiens (Human), UniProt P04141 18-144); assay: not described (Table 12, criterion Binding)
Chain of GM-CSF (P04141 18-144 limits assumed): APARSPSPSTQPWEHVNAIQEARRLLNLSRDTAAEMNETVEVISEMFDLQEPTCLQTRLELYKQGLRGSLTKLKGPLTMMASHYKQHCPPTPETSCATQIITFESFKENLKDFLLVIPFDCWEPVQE

Chain of Aminogylcosidase (Aspergillus niger) (Aspergillus niger) (P69328 25-640): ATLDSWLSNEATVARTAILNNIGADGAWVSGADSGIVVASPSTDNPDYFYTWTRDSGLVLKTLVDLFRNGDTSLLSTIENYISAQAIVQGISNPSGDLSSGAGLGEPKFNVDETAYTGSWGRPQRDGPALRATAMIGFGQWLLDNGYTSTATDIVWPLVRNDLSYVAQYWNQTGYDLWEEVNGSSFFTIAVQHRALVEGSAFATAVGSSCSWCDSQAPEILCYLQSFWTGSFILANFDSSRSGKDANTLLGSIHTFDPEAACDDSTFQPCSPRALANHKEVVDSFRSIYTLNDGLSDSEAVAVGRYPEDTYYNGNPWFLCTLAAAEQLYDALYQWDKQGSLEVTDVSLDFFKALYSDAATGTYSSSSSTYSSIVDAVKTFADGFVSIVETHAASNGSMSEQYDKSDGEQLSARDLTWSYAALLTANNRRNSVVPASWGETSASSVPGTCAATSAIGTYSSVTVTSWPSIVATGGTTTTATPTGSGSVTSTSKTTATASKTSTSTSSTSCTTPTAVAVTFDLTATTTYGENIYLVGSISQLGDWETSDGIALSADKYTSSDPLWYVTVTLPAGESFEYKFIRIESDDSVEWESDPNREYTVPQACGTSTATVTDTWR
Chain of Transferrin (bovine) (Q29443 20-704 limits assumed): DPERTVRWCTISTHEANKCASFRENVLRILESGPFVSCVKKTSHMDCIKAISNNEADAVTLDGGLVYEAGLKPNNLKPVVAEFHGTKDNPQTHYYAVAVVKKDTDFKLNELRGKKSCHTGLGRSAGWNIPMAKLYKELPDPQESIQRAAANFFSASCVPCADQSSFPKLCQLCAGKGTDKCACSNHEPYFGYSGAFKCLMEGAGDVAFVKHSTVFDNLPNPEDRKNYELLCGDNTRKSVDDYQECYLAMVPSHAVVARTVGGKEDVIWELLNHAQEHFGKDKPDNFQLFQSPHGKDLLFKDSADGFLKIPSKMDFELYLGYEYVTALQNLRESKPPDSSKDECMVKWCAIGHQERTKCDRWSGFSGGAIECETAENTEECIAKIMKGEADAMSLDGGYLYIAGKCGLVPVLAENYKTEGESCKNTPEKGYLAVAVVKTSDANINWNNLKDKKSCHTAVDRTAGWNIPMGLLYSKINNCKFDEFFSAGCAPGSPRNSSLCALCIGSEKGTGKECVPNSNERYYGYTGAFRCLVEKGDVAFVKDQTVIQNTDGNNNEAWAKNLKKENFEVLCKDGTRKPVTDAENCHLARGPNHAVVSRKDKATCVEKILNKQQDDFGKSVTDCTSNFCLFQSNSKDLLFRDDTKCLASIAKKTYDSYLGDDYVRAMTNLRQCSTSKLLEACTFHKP
Chain of Pepsinogen (pork) (P00791 16-385): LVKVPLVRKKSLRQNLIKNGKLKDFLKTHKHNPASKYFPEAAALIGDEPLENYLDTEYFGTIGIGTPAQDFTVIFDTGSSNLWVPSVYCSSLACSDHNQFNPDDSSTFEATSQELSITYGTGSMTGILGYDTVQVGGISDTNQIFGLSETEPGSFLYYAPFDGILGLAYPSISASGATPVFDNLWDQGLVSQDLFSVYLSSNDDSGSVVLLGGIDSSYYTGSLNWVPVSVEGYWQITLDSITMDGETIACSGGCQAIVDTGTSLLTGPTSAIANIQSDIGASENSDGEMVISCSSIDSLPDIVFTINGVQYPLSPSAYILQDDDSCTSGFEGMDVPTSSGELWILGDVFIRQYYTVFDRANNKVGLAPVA

B1: Camille (format not stated) (antibody, V domains shown)
VH: QVQLQQSGPGLVKPSQTLSLTCAISGESVSTSSAAWNWIRQSPSRGLEWLGRTYYRSKWKHEYAVSVKSRITINPDTSKNQFSLQLNSVTPEDTAVYYCARDRYYYSAFDYWGQGTLVTVSS
VL: QSALTQPASVSGSPGQSITISCTGTSSDVGGYNSVSWYQQHPGKAPKLLIYAVSNRPSGVSNRFSGSKSGNTASLTISGLQAEDEADYYCASYDERFTRVFGGGTKLTVLG
notes: also called Antibody Camille
signal normalized to reference antibody MOR03207 (Transferrin (bovine)): 1 ratio
signal normalized to reference antibody MOR03207 (human M-CSF): 244 ratio
signal normalized to reference antibody MOR03207 (Serum albumin (human)): 1 ratio
signal normalized to reference antibody MOR03207 (Pepsinogen (pork)): 1 ratio
signal normalized to reference antibody MOR03207 (RNase A (cow)): 1 ratio
signal normalized to reference antibody MOR03207 [1]: 1 ratio
IC50 [2]: 4 pM
binding result (GM-CSF): no binding
